Source: IntAct's records for PubMed 17681130

B1: Protein BRASSINAZOLE-RESISTANT 1 (Arabidopsis thaliana (Mouse-ear cress)), Q8S307 (parent)
chain: MTSDGATSTSAAAAAAAAAAARRKPSWRERENNRRRERRRRAVAAKIYTGLRAQGDYNLPKHCDNNEVLKALCVEAGWVVEEDGTTYRKGCKPLPGEIAGTSSRVTPYSSQNQSPLSSAFQSPIPSYQVSPSSSSFPSPSRGEPNNNMSSTFFPFLRNGGIPSSLPSLRISNSCPVTPPVSSPTSKNPKPLPNWESIAKQSMAIAKQSMASFNYPFYAVSAPASPTHRHQFHTPATIPECDESDSSTVDSGHWISFQKFAQQQPFSASMVPTSPTFNLVKPAPQQMSPNTAAFQEIGQSSEFKFENSQVKPWEGERIHDVGMEDLELTLGNGKARG
partner: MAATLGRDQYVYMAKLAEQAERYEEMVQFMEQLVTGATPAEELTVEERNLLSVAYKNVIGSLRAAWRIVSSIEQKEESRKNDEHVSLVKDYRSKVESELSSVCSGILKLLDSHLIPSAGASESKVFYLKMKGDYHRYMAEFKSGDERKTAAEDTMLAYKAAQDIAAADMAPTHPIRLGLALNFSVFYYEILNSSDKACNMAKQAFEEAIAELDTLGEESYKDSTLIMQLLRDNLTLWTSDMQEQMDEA

Variants of: B1
Details: with 14336_arath GRF6, P48349

Q: How did the “effect of a mutation on the interaction” value turn out when MTSDGATSTSAAAAAAAAAAARRKPSWRERENNRRRERRRRAVAAKIYTGLRAQGDYNLPKHCDNNEVLKALCVEAGWVVEEDGTTYRKGCKPLPGEIAGTSSRVTPYSSQNQSPLSSAFQSPIPSYQVSPSSSSFPSPSRGEPNNNMSSTFFPFLRNGGIPSSLPSLRISNACPVTPPVSSPTSKNPKPLPNWESIAKQSMAIAKQSMASFNYPFYAVSAPASPTHRHQFHTPATIPECDESDSSTVDSGHWISFQKFAQQQPFSASMVPTSPTFNLVKPAPQQMSPNTAAFQEIGQSSEFKFENSQVKPWEGERIHDVGMEDLELTLGNGKARG [S173A] was run?
A: Its value is “decreasing interaction”.
